Experimental data taken from US20100034737A1 (published 2010).

Target: T1, mouse JAM-C on the surface of GL261-233R (JAM-C rescued) and GL261-233RC (JAM-C knock-down) mouse glioma cells (mouse, UniProt Q9D8B7 30-310)
T1 construct: whole, on cells; also called JAM-C on the surface of glioma cells
T1 sequence (looked up): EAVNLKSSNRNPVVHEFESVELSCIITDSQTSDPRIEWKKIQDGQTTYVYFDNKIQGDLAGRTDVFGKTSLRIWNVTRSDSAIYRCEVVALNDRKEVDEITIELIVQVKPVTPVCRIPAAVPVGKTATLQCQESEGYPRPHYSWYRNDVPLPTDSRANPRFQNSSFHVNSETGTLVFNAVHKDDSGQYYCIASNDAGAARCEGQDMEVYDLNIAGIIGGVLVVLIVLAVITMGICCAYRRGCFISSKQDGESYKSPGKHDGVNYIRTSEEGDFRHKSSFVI
Assay: flow cytometry of sJAM-B-Fc on GL261-233RC and GL261-233R cells (FIG. 22 A, B) and c-Src ELISA
Experimental: Cells were then washed with PBS, 0.2% FCS and 0.01% azide and analysed.
Amounts of total c-Src protein and of active phosphorylated-c-Src were quantified using FACE c-Src ELISA kit (Active Motif, CA, USA). […] At day 2, cells were incubated 30 min on ice and then 20 min at 37° C. with recombinant mouse JAM-B/Fc chimera antibody (R&D, MN, USA) at a final concentration of 5 μg/ml. Cells were then fixed and analysed with c-Src ELISA following the manufacturer's instructions (colorimetric Assay for adherent cells).

B1: Recombinant Mouse JAM-B/Fc Chimera (Fc fusion, UniProt Q9JI59 29-236, looked up)
chain: FSASKDHRQEVTVIEFQEAILACKTPKKTTSSRLEWKKVGQGVSLVYYQQALQGDFKDRAEMIDFNIRIKNVTRSDAGEYRCEVSAPTEQGQNLQEDKVMLEVLVAPAVPACEVPTSVMTGSVVELRCQDKEGNPAPEYIWFKDGTSLLGNPKGGTHNNSSYTMNTKSGILQFNMISKMDSGEYYCEARNSVGHRRCPGKRMQVDVLN
notes: extracellular domain; Bought from R&D; also called sJAM-B-Fc chimera; soluble JAM-B; not shown: Fc part, detected with anti-human Fc antibody
binding result: binds
